Measured values taken from publication PMC8667318.

Molecular target: Recombinant human MCHR1 Protein (human) (UniProt Q99705)
Assay: SPR; Biacore T200, CM5 chip, 25°C; MCHR1 immobilised by amine coupling (~5500 RU); PDGF-BB as analyte 100 nM to 3.125 nM; PBS-P (20 mM phosphate pH 7.4, 137 mM NaCl, 2.7 mM KCl, 0.05% P20); 1:1 kinetics model fitting

Chain of UniProt Q99705 (Q99705 whole entry): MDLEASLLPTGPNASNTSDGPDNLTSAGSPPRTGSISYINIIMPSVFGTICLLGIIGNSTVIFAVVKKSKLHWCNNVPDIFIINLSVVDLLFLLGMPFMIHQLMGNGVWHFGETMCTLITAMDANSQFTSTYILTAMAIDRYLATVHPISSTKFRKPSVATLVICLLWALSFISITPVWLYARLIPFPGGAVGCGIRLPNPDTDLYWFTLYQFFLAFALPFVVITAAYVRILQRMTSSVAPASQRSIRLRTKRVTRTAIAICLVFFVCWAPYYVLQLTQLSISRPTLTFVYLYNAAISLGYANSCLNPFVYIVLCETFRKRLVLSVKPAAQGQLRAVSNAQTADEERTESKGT

Recombinant human PDGF-BB (from UniProt P01127 82-190) (ligand)
Kd: 46.6 nM
